# Data from paper PMC4755954, “Impact of clinically tested NEP/ACE inhibitors on tumor uptake of [^111In-DOTA]MG11—first estimates for clinical translation” (EJNMMI Research, 2016).
# Square brackets hold non-standard residues; d marks the D form. Peptide text beside a SMILES is read from it. * marks the point of attachment. DOTA = O=C(O)CN1CCN(CC(=O)O)CCN(CC(=O)*)CCN(CC(=O)O)CC1
# What was measured:
# [1] = iv infusion of 150 mg in 250 mL of isotonic glucose in 42 patients; cited from earlier work
# Excerpt: Aiming at clinical translation, our interest has been attracted by two clinically certified NEP inhibitors, TO and its prodrug Race. TO is a potent, reversible NEP inhibitor with a relative rapid onset of action, but its water solubility is not ideal for iv injection as a bolus together with the radiopeptide. […] The impact of TO on the bioavailability and tumor uptake of our paradigm compound [^111In-DOTA] ...
# [2] = in vivo; parameters: species or system SCID mice; settings: male, SCID, mouse, iv, 10 pmol total peptide, total radioactivity, %ID/g tissue ± SD
# Protocol: In-house male SCID mice (NCSR “Demokritos” Animal House) of 6 weeks of age at the time of arrival (18 ± 2 g body weight) were inoculated subcutaneously (sc) in their flanks with a suspension of freshly harvested AR42J cells (1 × 10^7 cells in ~150 μL saline). Animals were kept in aseptic conditions for 14 days when well-palpable tumors developed at the inoculation sites (0.31 ± 0.17 g). At the day of biodistribution, animals received a bolus of [^111In-DOTA]MG11 (100 μL, 37–74 kBq, 10 pmol total peptide, in saline/EtOH 9/1 v/v) through the tail vein, coinjected with (a) vehicle (100 μL; control group, n = 10), (b) PA (100 μL of vehicle containing 300 μg PA; PA group, n = 10), (c) TO (100 μL of vehicle containing 150 μg TO; TO group, n = 4), (d) Lis (100 μL of vehicle containing 100 μg Lis; Lis group, n = 4), (e) PA plus Lis (100 μL vehicle containing 300 μg PA and 100 μg Lis; PA+Lis group, n = 5), or (f) 30–40 min after ip injection of Race (3 mg Race dissolved in 0.025 mL DMSO and freshly mixed with 0.375 mL saline; Race group, n = 4). In a separate animal group, the mice were coinjected with 100 μL vehicle containing both 300 μg PA and 100 μg DG2 [25] to assess non-specific tumor uptake during in situ NEP inhibition (in vivo CCK2R blockade; block group, n = 4).
# (§1) Mice had access to drinking water ad libitum until they were euthanized at 4 h pi. Blood samples, organs of interest, and tumors were collected immediately after dissection, weighted, and measured for radioactivity in the gamma counter; only stomachs were emptied of their contents prior to measurements. Biodistribution data were calculated as percent of injected dose per gram tissue (% ID/g) with the aid of suitable standards of the injected dose, using the GraphPad Prism Software (San Diego, CA).
# [3] = in vivo; parameters: species or system SCID mice; settings: male, SCID, mouse, iv, 10 pmol total peptide, total radioactivity, %ID/g tissue ± SD; remark: listed apart in the source
# Protocol: as §1
# Inocula of freshly harvested A431-CCK2R(+/−) cells (1.6 × 10^7/1.4 × 10^7 cell suspensions in 150 μL saline) were sc-injected in the right and left flanks of the SCID mice (male SCID mice, 6 weeks of age and of 18 ± 2 g body weight on arrival day; NCSR “Demokritos” Animal House). The animals were kept in aseptic conditions for 8 days till well-palpable tumors (0.26 ± 0.08 g) developed at the inoculation sites. At the day of the experiment, the mice received a bolus of [^111In-DOTA]MG11 (100 μL, 37–74 kBq, 10 pmol total peptide, in saline/EtOH 9/1 v/v) through the tail vein, coinjected with (a) vehicle (100 μL; control group, n = 5), (b) three different doses of PA (3 μg, n = 5; 30 μg, n = 4; or 300 μg PA, n = 10, dissolved in 100 μL vehicle), and (c) three different doses of TO (1.5, 15, or 150 μg TO dissolved in 100 μL vehicle, all groups of n = 4). Mice had free access to drinking water until they were sacrificed at 4 h pi, and biodistribution was conducted as described above.
structure (smiles),measurement,setting,value
"O=C(O)CNC(=O)C(CS)Cc1ccccc1 (racemic) [TO, DL-3-mercapto-2-benzylpropanoylglycine]",hemodynamic tolerance in human,[1],excellent hemodynamic tolerance
"CSCC[C@H](NC(=O)[C@H](Cc1c[nH]c2ccccc12)NC(=O)CNC(=O)[C@H](Cc1ccc(O)cc1)NC(=O)[C@H](C)NC(=O)[C@@H](CCC(=O)O)NC(=O)CN1CCN(CC(=O)O)CCN(CC(=O)O)CCN(CC(=O)O)CC1)C(=O)N[C@@H](CC(=O)O)C(=O)N[C@@H](Cc1ccccc1)C(N)=O [[^111In-DOTA]MG11, metal not drawn] ({DOTA}-[dE]AYGWMDF-NH2)",tissue uptake at 4 h,[2]; Blood,0.04 ± 0.01 %ID/g
same,tissue uptake at 4 h,[2]; Femur,0.09 ± 0.05 %ID/g
same,tissue uptake at 4 h,[2]; Heart,0.05 ± 0.02 %ID/g
same,tissue uptake at 4 h,[2]; Intestines,0.89 ± 0.76 %ID/g
same,tissue uptake at 4 h,[2]; Kidneys,1.86 ± 0.25 %ID/g
same,tissue uptake at 4 h,[2]; Liver,0.13 ± 0.03 %ID/g
same,tissue uptake at 4 h,[2]; Lung,0.07 ± 0.02 %ID/g
same,tissue uptake at 4 h,[2]; Muscle,0.04 ± 0.01 %ID/g
same,tissue uptake at 4 h,[2]; Pancreas,0.11 ± 0.03 %ID/g
same,tissue uptake at 4 h,[2]; Spleen,0.17 ± 0.07 %ID/g
same,tissue uptake at 4 h,[2]; Stomach,1.53 ± 0.65 %ID/g
same,tissue uptake at 4 h,[2]; Tumor (AR42J),1.82 ± 1.25 %ID/g
same,tissue uptake at 4 h,[3]; Blood,0.01 ± 0.01 %ID/g
same,tissue uptake at 4 h,[3]; Femur,0.02 ± 0.01 %ID/g
same,tissue uptake at 4 h,[3]; Heart,0.02 ± 0.01 %ID/g
same,tissue uptake at 4 h,[3]; Intestines,0.83 ± 0.53 %ID/g
same,tissue uptake at 4 h,[3]; Kidneys,1.3 ± 0.29 %ID/g
same,tissue uptake at 4 h,[3]; Liver,0.11 ± 0.02 %ID/g
same,tissue uptake at 4 h,[3]; Lung,0.03 ± 0.01 %ID/g
same,tissue uptake at 4 h,[3]; Muscle,0.02 ± 0.01 %ID/g
same,tissue uptake at 4 h,[3]; Pancreas,0.05 ± 0.02 %ID/g
same,tissue uptake at 4 h,[3]; Spleen,0.06 ± 0.01 %ID/g
same,tissue uptake at 4 h,[3]; Stomach,1.32 ± 0.26 %ID/g
same,tissue uptake at 4 h,[3]; Tumor (+) (A431-CCK2R(+)),2.5 ± 0.92 %ID/g
same,tissue uptake at 4 h,[3]; Tumor (−) (A431-CCK2R(−)),0.12 ± 0.02 %ID/g
